Data published in patent US20250154283A1 (published 2025).
One block for each binder: values may come before it.

Experiments:
[1] = molecular target: T1, biotinylated human VWF cysteine knot (CK) domain construct (human, biotin on the in vitro biotinylation tag (residue not stated); one N-glycan); assay: SPR, scFv captured on anti-SV5, pH 7.4
T1 construct: Disulfide-linked homodimer; also called biotinylated human VWF CK domain; human VWF CK domain construct
T1 chain: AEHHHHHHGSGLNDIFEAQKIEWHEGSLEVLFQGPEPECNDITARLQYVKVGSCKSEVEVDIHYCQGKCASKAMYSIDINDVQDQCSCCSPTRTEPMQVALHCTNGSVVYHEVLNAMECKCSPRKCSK

[2] = molecular target: T2, VWF in human plasma (human, UniProt P04275 764-2813); assay: collagen type III binding ELISA; human plasma (5 donors) 17 h 37 °C with 600 nM antibody; VWF bound to collagen relative to untreated plasma; ligand collagen type III
T2 construct: Endogenous VWF in donor plasma, not purified; multimeric; also called VWF in plasma; VWF in platelet rich plasma
Protocol: Following incubation, collagen binding was determined relative to untreated plasma.

[3] = molecular target: T3, His-StrepTagII-HRV3C-human VWF-CK-HA-tag (human); assay: solution-phase equilibrium binding, free antibody by ELISA; apparent Kd; pH 5.5; mean ± SD, n=2
T3 construct: it begins with the VWF signal peptide, whose limits were marked only by underlining that is lost in the text, so it was not cut off; The CK domain forms disulfide-linked homodimers (CK dimer); also called recombinant human CK domain; Human CK
T3 chain: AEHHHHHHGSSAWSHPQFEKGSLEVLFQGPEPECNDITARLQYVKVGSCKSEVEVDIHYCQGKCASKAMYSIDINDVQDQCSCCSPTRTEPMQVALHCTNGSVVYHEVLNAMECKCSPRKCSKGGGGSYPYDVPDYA
Protocol: (§1) Following incubation for 30 min at room temperature to establish equilibrium, unbound antibody was quantified by ELISA using the immobilized human CK domain for capture and HRP-conjugated goat anti-human IgG Fc antibody for detection.
(§2) Following a single wash of the plate with 200 μL of wash buffer (TBS containing 0.05% (v/v) Tween-20 and 5 mM CaCl₂), the plate was blocked by incubation with 200 μL blocking buffer (TBS containing 5 mM CaCl₂ and 1% (w/w) BSA) for 1 hour at room temperature. […] Incubation lasted 3 min and was followed by 5-min incubation with 100 μL HRP-conjugated goat anti-human IgG Fc antibody for detection (1 mg/mL stock diluted 1:20,000 in blocking buffer). Before and after addition of a detection antibody, the plate was washed 5 times with 200 μL wash buffer. A chromogenic horseradish peroxidase (HRP) substrate (100 μL) was then added and following color development for 3 min, 100 μL ELISA stop solution were added to quench the reaction. Absorbance was measured at 450 nm with subtraction of the absorbance at 620 nm.
(§3) The standard curve prepared with free antibody was fitted to a Sigmoidal four-parameter logistic (4PL) model.

[4] = molecular target: T2, VWF in human plasma; assay: flow cytometry, FITC anti-VWF on platelets; human PRP (2 donors), 0.5 mg/ml ristocetin, 600 nM antibody; relative to the same plasma without antibody; receptor platelet gp1b
Protocol: PRP was prepared by centrifuging the blood at 250 g for 15 min. […] Sample analysis was performed on a flow cytometer. Using forward (FSC) and sideward (SSC) scatter pattern, a gate was placed on the platelets.

[5] = molecular target: T4, His-StrepTagII-HRV3C-cyno VWF-CK-HA-tag (cynomolgus monkey); assay: solution-phase equilibrium binding, free antibody by ELISA; apparent Kd; pH 7.4; mean ± SD, n=2
T4 construct: it begins with the VWF signal peptide, whose limits were marked only by underlining that is lost in the text, so it was not cut off; The CK domain forms disulfide-linked homodimers; also called recombinant cyno CK domain; Cyno CK
T4 chain: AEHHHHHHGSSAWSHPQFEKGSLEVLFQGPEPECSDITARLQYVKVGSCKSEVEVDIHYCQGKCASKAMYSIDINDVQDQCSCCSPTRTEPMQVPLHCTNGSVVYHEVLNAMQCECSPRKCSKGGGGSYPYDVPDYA
Protocol: as §1, §2, §3

[6] = molecular target: T5, human plasma-derived VWF (human, UniProt P04275 764-2813); assay: as above
T5 construct: multimeric; also called pd-VWF; Human VWF
Protocol: as §1, §2, §3

[7] = molecular target: T3, His-StrepTagII-HRV3C-human VWF-CK-HA-tag; assay: as above
Protocol: as §1, §2, §3

[8] = molecular target: T2, VWF in human plasma; assay: VWF:FVIIIB enzyme immunoassay; human plasma (5 donors) 17 h 37 °C with 200 nM antibody; FVIII bound to captured VWF relative to untreated plasma; ligand FVIII
[9] = molecular target: T2, VWF in human plasma; assay: VWF:FVIIIB enzyme immunoassay; human plasma (5 donors) 17 h 37 °C with 600 nM antibody; FVIII bound to captured VWF relative to untreated plasma; ligand FVIII
[10] = molecular target: T6, His-StrepTagII-HRV3C-cyno VWF-CK-HA-tag (cynomolgus monkey); assay: solution-phase equilibrium binding, unbound antibody by ELISA
T6 construct: also called recombinant cyno CK domain; cyno CK
T6 chain: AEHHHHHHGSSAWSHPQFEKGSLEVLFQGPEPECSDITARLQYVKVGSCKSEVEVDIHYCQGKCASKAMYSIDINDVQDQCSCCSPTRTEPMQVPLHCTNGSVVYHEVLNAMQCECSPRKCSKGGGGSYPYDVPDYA

B1: 9312_Lib8_scFv (scFv, not shown: small tags and cut ends)
scFv: EVQLVESGGGLVQPGRSLRLSCAASGFSLSTYDMHWVRQAPGKGLEWVSAISSSGDTRDYADSVEGRFTISRDNAKNSLYLQMNSLRAEDTAVYYCARAFWGGDAFDIWGQGTMVTVSSSGGSTITSYNVYYTKLSSSGTDIQMTQSPSSLSASVGDRVTITCRASQTIGYWLAWYQQKPGKAPKLLIYGASTLEGGVPSRFSGSGSGTDFTLTISSLQPEDVATYYCQHSYSAPPTFGGGTKVEIK
binding result [1]: binds

B3: Lib1_P1_G3 OA (antibody, human IgG4 S228P, kappa, F234A L235A)
heavy: QVQLVQSGAEVKKPGASVKVSCKVSGYTSRQYIHWVRQAPGKGLEWMGWVTPIFGTTNYAQKFQGRVTMTEDTSTDTAYMELSSLKSEDTAVYYCAREWTGTTAFDIWGQGTLVTVSSASTKGPSVFPLAPCSRSTSESTAALGCLVKDYFPEPVTVSWNSGALTSGVHTFPAVLQSSGLYSLSSVVTVPSSSLGTKTYTCNVDHKPSNTKVDKRVESKYGPPCPPCPAPEAAGGPSVFLFPPKPKDTLMISRTPEVTCVVVDVSQEDPEVQFNWYVDGVEVHNAKTKPREEQFNSTYRVVSVLTVLHQDWLNGKEYKCKVSNKGLPSSIEKTISKAKGQPREPQVYTLPPSQEEMTKNQVSLSCAVKGFYPSDIAVEWESNGQPENNYKTTPPVLDSDGSFFLVSRLTVDKSRWQEGNVFSCSVMHEALHNHYTQKSLSLSLG
chain: ESKYGPPCPPCPAPEAAGGPSVFLFPPKPKDTLMISRTPEVTCVVVDVSQEDPEVQFNWYVDGVEVHNAKTKPREEQFNSTYRVVSVLTVLHQDWLNGKEYKCKVSNKGLPSSIEKTISKAKGQPREPQVYTLPPSQEEMTKNQVSLWCLVKGFYPSDIAVEWESNGQPENNYKTTPPVLDSDGSFFLYSRLTVDKSRWQEGNVFSCSVMHEALHNHYTQKSLSLSLG
light: DIQMTQSPSSVSASVGDRVTITCRASQDIGHYLAWYQQKPGKAPKLLIYAASNRASGVPSRFSGSGSGTDFTLTISSLQPEDFANYYCQQGYSAPYGFGGGTKVEIKRTVAAPSVFIFPPSDEQLKSGTASVVCLLNNFYPREAKVQWKVDNALQSGNSQESVTEQDSKDSTYSLSSTLTLSKADYEKHKVYACEVTHQGLSSPVTKSFNRGEC
Collagen binding (% control) [2]: 108 % control
Kd [3]: 32.3 nM
Platelet binding (% control) [4]: 101 % control
Kd [5]: 11 nM
Kd [6]: 5.3 nM
Kd [7]: 4.3 nM
VWF:FVIII level (% of control) [8]: 84.5 % of control
VWF:FVIII level (% of control) [9]: 85.8 % of control

B4: 399_Lib1 OA (antibody, human IgG4 S228P, kappa, F234A L235A)
heavy: QVQLVQSGAEVKKPGASVKVSCKVSGITFTSDYIHWVRQAPGKGLEWMGGMNPYSNKAIYAQKFQGRVTMTEDTSTDTAYMELSSLKSEDTAVYYCATGGLRIAARTSYFDYWGQGTLVTVSSASTKGPSVFPLAPCSRSTSESTAALGCLVKDYFPEPVTVSWNSGALTSGVHTFPAVLQSSGLYSLSSVVTVPSSSLGTKTYTCNVDHKPSNTKVDKRVESKYGPPCPPCPAPEAAGGPSVFLFPPKPKDTLMISRTPEVTCVVVDVSQEDPEVQFNWYVDGVEVHNAKTKPREEQFNSTYRVVSVLTVLHQDWLNGKEYKCKVSNKGLPSSIEKTISKAKGQPREPQVYTLPPSQEEMTKNQVSLSCAVKGFYPSDIAVEWESNGQPENNYKTTPPVLDSDGSFFLVSRLTVDKSRWQEGNVFSCSVMHEALHNHYTQKSLSLSLG
chain: ESKYGPPCPPCPAPEAAGGPSVFLFPPKPKDTLMISRTPEVTCVVVDVSQEDPEVQFNWYVDGVEVHNAKTKPREEQFNSTYRVVSVLTVLHQDWLNGKEYKCKVSNKGLPSSIEKTISKAKGQPREPQVYTLPPSQEEMTKNQVSLWCLVKGFYPSDIAVEWESNGQPENNYKTTPPVLDSDGSFFLYSRLTVDKSRWQEGNVFSCSVMHEALHNHYTQKSLSLSLG
light: DIQMTQSPSSVSASVGDRVTITCRASMDIAGSLAWYQQKPGKAPKLLIYDTSFRATGVPSRFSGSGSGTDFTLTISSLQPEDFANYYCQQYDNPPRLTFGGGTKVEIKRTVAAPSVFIFPPSDEQLKSGTASVVCLLNNFYPREAKVQWKVDNALQSGNSQESVTEQDSKDSTYSLSSTLTLSKADYEKHKVYACEVTHQGLSSPVTKSFNRGEC
notes: monovalent one-arm human IgG4
fold change in Kd, cyno CK against human CK [10]: < 2 fold

B5: 399_Lib1 OA (antibody, human IgG4 S228P, kappa, F234A L235A)
heavy: QVQLVQSGAEVKKPGASVKVSCKVSGITFTSDYIHWVRQAPGKGLEWMGGMNPYSNKAIYAQKFQGRVTMTEDTSTDTAYMELSSLKSEDTAVYYCATGGLRIAARTSYFDYWGQGTLVTVSSASTKGPSVFPLAPCSRSTSESTAALGCLVKDYFPEPVTVSWNSGALTSGVHTFPAVLQSSGLYSLSSVVTVPSSSLGTKTYTCNVDHKPSNTKVDKRVESKYGPPCPPCPAPEAAGGPSVFLFPPKPKDTLMISRTPEVTCVVVDVSQEDPEVQFNWYVDGVEVHNAKTKPREEQFNSTYRVVSVLTVLHQDWLNGKEYKCKVSNKGLPSSIEKTISKAKGQPREPQVYTLPPSQEEMTKNQVSLSCAVKGFYPSDIAVEWESNGQPENNYKTTPPVLDSDGSFFLVSRLTVDKSRWQEGNVFSCSVMHEALHNHYTQKSLSLSLG
chain: ESKYGPPCPPCPAPEAAGGPSVFLFPPKPKDTLMISRTPEVTCVVVDVSQEDPEVQFNWYVDGVEVHNAKTKPREEQFNSTYRVVSVLTVLHQDWLNGKEYKCKVSNKGLPSSIEKTISKAKGQPREPQVYTLPPSQEEMTKNQVSLWCLVKGFYPSDIAVEWESNGQPENNYKTTPPVLDSDGSFFLYSRLTVDKSRWQEGNVFSCSVMHEALHNHYTQKSLSLSLG
light: DIQMTQSPSSVSASVGDRVTITCRASMDIAGSLAWYQQKPGKAPKLLIYDTSFRATGVPSRFSGSGSGTDFTLTISSLQPEDFANYYCQQYDNPPRLTFGGGTKVEIKRTVAAPSVFIFPPSDEQLKSGTASVVCLLNNFYPREAKVQWKVDNALQSGNSQESVTEQDSKDSTYSLSSTLTLSKADYEKHKVYACEVTHQGLSSPVTKSFNRGEC
Kd [5]: 16.8 nM
Kd [7]: 13 nM

Further lines, results first:

binding result [1]: binds
B2: Lib1_P1_A6_scFv (scFv, not shown: small tags and cut ends)
scFv: QVQLVQSGAEVKKPGASVKVSCKVSGSTFSNYAIHWVRQAPGKGLEWMGGIVPLSGTAIYAQKFQGRVTMTEDTSTDTAYMELSSLKSEDTAVYYCARDQGESSGWYAIYYGMDVWGQGTTVTVSSSGGSTITSYNVYYTKLSSSGTDIQMTQSPSSVSASVGDRVTITCRASQGIGTWLAWYQQKPGKAPKLLIYGSSSRASGVPSRFSGSGSGTDFTLTISSLQPEDFANYYCQQSYGKPTFGGGTKVEIK

binding result [1]: binds
B6: 4761_Lib8_scFv (scFv, not shown: small tags and cut ends)
scFv: EVQLVESGGGLVQPGRSLRLSCAASGFTFSSDTMHWVRQAPGKGLEWVSAISSSGDHTDYADSVEGRFTISRDNAKNSLYLQMNSLRAEDTAVYYCAREGLRGYYFDYWGQGTLVTVSSSGGSTITSYNVYYTKLSSSGTDIQMTQSPSSLSASVGDRVTITCRASQGISGHLAWYQQKPGKAPKLLIYAASALQSGVPSRFSGSGSGTDFTLTISSLQPEDVATYYCQQSHSLPWTFGGGTKVEIK

binding result [1]: binds
B7: 5802_Lib4_scFv (scFv, not shown: small tags and cut ends)
scFv: QVQLQESGPGLVKPSQTLSLTCTVSGYSISSGDYHWSWIRQPPGKGLEWIGYINPSGSADYNPSLKSRVTMSVDTSKNQFSLKVNSVTAADTAVYYCARDGVAATYYYYYGMDVWGQGTTVTVSSSGGSTITSYNVYYTKLSSSGTEIVMTQSPATLSLSPGERATLSCRASHSIGSNLAWYQQKPGQAPRLLIYDATTRATGIPARFSGSGSGTDFTLTISSLEPEDFAVYYCQQAYSFPLTFGGGTKVEIK
